Experimental data published in doi:10.1101/697946.

Target: LMP7-His, biotinylated (UniProt P28062)
Test: BLI

Substance: Nef-GST (from UniProt P03406 1-206) (natural protein)
- Kd: 735 nM
- wavelength shift: 71.1 pm
